Results on 2 variants are retold here after publication PMC6638984, “Increased association between Epstein-Barr virus EBNA2 from type 2 strains and the transcriptional repressor BS69 restricts EBNA2 activity” (PLoS Pathogens, 2019).

The term Kd denotes the equilibrium constant for the complex coming apart.

Sequences and labels used below:
B1: type 2 EBNA2 polypeptide T2 EBNA2_(348-422) [Epstein-Barr virus type 2 (AG876)] / BS69 coiled-coil MYND domain (BS69_(CC-MYND), amino acids 480-602) [human] (parent)
chain 1: SMPQLSPVVSLHQGQGPENSPTPGPSTAGPVCRVTPSATPDISPIHEPESSDSEEPPFLFPSDWYPPTLEPAELD
chain 2: DRMKSDHKRETERVVREALEKLRSEMEEEKRQAVNKAVANMQGEMDRKCKQVKEKCKEEFVEEIKKLATQHKQLISQTKKKQWCYNCEEEAMYHCCWNTSYCSIKCQQEHWHAEHKRTCRRKR

The variants in the assay derive from B1. The assay is described as follows: ITC. The following applies: with BS69 coiled-coil MYND domain (BS69_(CC-MYND), amino acids 480-602) [human], two-site model, 29 injections of 1.3 μl 0.3 mM EBNA2 polypeptide and 0.1 mM BS69CC-MYND in the cell.
[1] abbreviates: binding event 1 (KD1), parent: 9 nM.
Where [2] appears, read: binding event 2 (KD2), parent: 91 nM.

In the case of chain 1 SMPQLSPVVSLHQGQGPENSPTPGPSTAGPVCRVTPSATPDISPIHEPESSDSEEPPFLFPDDWYPPTLEPAELD, the Kd was 5 nM under setting [1] and 94 nM under setting [2].
The matching figures for chain 1 SMPQLSPVVSLHQGQGPENSPTPGPSTAGPVCRVTPSATPDISPIHEPESSDSEEPPFLFPDDWYPATAEAAELD: 8 nM and 200 nM.
